Reference: patent US20240043504A1 (published 2024)
Values joined by “and” are separate entries in the source; they are usually repeats but may differ in a detail not shown here. Identical values can stand only once.

Assays:
[1] = molecular target: full-length SARS-CoV-2 spike protein (amino acids M1-T1273 of accession number YP_009724390.1) on Ju (SARS-CoV-2, UniProt P0DTC2 14-1273); assay: cell-based or functional assay
[2] = molecular target: receptor binding domain (RBD) portion of the SARS-CoV-2 Spike protein (amino acids Arg319-Phe541) ex (SARS-CoV-2)
[3] = molecular target: SARS-CoV-2 Spike Protein (RBD)(R319-F541).mFc (mAb10621-L1) (SARS-CoV-2); assay: Luminex bead binding, supernatant
[4] = molecular target: SARS-CoV-2 Spike Protein (RBD)(R319-F541).hFc (mAb10622-L1) (SARS-CoV-2); assay: Luminex bead binding, supernatant
[5] = molecular target: Bt-SARS-CoV-2 Spike Protein (RBD)(R319-F541).mFc (mAb10621-L2) (SARS-CoV-2); assay: Luminex bead binding, supernatant
[6] = molecular target: Human SARS Coronavirus Spike S1 Subunit Protein (His Tag) (Sino 40150-V08B1) (Human SARS Coronavirus, UniProt P59594 14-667); assay: Luminex bead binding, supernatant
[7] = molecular target: SARS-CoV-2 spike protein (S-wt, Wuhan-Hu-1, NCBI Accession Number MN908947.3) on VSV pseudoparticles (SARS-CoV-2, UniProt P0DTC2 14-1273); assay: cell-based or functional assay

B1: mAb10987 (antibody, V domains shown)
VH: QVQLVESGGGVVQPGRSLRLSCAASGFTFSNYAMYWVRQAPGKGLEWVAVISYDGSNKYYADSVKGRFTISRDNSKNTLYLQMNSLRTEDTAVYYCASGSDYGDYLLVYWGQGTLVTVSS
VL: QSALTQPASVSGSPGQSITISCTGTSSDVGGYNYVSWYQQHPGKAPKLMIYDVSKRPSGVSNRFSGSKSGNTASLTISGLQSEDEADYYCNSLTSISTWVFGGGTKLTVLG
- ADCP EC50 [M], Jurkat/hCD20/SARS-CoV-2 Spike cells [1]: 6.33e-12 M
- ADCP Max (% ADCP), Jurkat/hCD20/SARS-CoV-2 Spike cells [1]: 56.7%

B2: mAb10989 (antibody, V domains shown)
VH: QVQLVQSGAEVKKPGASVKVSCKASGYIFTGYYMHWVRQAPGQGLEWMGWINPNSGGANYAQKFQGRVTLTRDTSITTVYMELSRLRFDDTAVYYCARGSRYDWNQNNWFDPWGQGTLVTVSS
VL: QSALTQPASVSGSPGQSITISCTGTSSDVGTYNYVSWYQQHPGKAPKLMIFDVSNRPSGVSDRFSGSKSGNTASLTISGLQAEDEADYYCSSFTTSSTVVFGGGTKLTVLG
- IC50 [2]: 0.0591 nM and 0.0428 nM
- ADCP EC50 [M], Jurkat/hCD20/SARS-CoV-2 Spike cells [1]: 4.86e-12 M
- ADCP Max (% ADCP), Jurkat/hCD20/SARS-CoV-2 Spike cells [1]: 56%

B3: mAb11006 (antibody, V domains shown)
VH: EVQLVESGGGLVQPGGSLRLSCAASGFIVSRNYMSWVRQAPGKGLEWVSVIYSGGSTFYADSVKGRFTISRHNSKNTLYLQMNSLKAEDTAVYYCARELRGYFDYWGQGTLVTVSS
VL: DIQLTQSPSFLSASVGDRVTITCWASQGISSYLAWYQQKPGKAPKLLIYAASTLQSGVPSRFSGSGSGTEFTLTISSLQPEDFATYYCQLLNSYPYTFGQGTKLEIK
- Binding signal (MFI) [3]: 2870 MFI
- Binding signal (MFI) [4]: 3980 MFI
- Binding signal (MFI) [5]: 1400 MFI

B4: mAb10956 (antibody, V domains shown)
VH: EVQLVESGGGLVQPGGSLRLSCAASGLTVSSNYMSWVRQAPGKGLEWVSVIYSGGSTFYADSVKGRFTISRDNSKNTLYLQMNSLRAEDTAVYYCARDLIKYGMDVWGQGTTVTVSS
VL: not shown
- Binding signal (MFI) [6]: 16 MFI

B5: mAb10957 (antibody, V domains shown)
VH: EVQLVESGGGLVQPGGSLRLSCAASGVTVSSNYMSWVRQAPGKGLEWVSVIYSGGSTFYADSVKGRFTISRDNSKNTLFLQMNSLRIEDTAVYYCARDLGPYGMDVWGQGTTVTVSS
VL: DIQLTQSPSFLSASVGDRVTITCRASQGISSYLAWYQQKPGKAPKLLIYAASTLQSGVPSRFSGSGSGTQFILTISSLQPEDFATYYCQQLNSYPGFTFGPGTKVDIKR
- Binding signal (MFI) [6]: 16 MFI

B6: mAb10920 (antibody, V domains shown)
VH: QVQLVESGGGVVQPGRSLRLSCAASGFTFSYYGMHWVRQAPGKGLEWVAVIWYDGSNKFYADSVKGRFTISRDNSKNTLYLQMNSLRAEDTAVYYCAAARPGYYYGMDVWGQGTTVTVSS
VL: DIQMTQSPSSLSASVGDRVTITCRASQGISNYLAWFQQKPGKAPNSLIYAASSLQRGVPSKFSGSGSGTDFTLTISSLQPEDFATYYCQQYNSYPRTFGQGTKVEIKR
- IC50 (M), neutralization [7]: 2.64e-10 M

B7: mAb10986 (antibody, V domains shown)
VH: EVQLVESGGGLVQPGGSLRLSCAASEFTVSSNYMSWVRQAPGKGLEWVSVIYSGGSTFYADSVKGRFTISRDNSKNTLYLQMNSLRAEDTAVYYCARALPYGDLHFDYWGQGTLVTVSS
VL: QSVLTQPPSVSGAPGQRVTISCTGSSSNIGTGYDVHWYQQLPGTAPKLLIYGNTNRPSGVPDRFSGSKSGTSASLAITGLQAEDEADYYCQSYDSSLSDSYVFGTGTKVTVLG
- IC50 (M), neutralization [7]: 9.91e-11 M

B8: mAb10936 (antibody, V domains shown)
VH: QVQLVESGGGVVQPGRSLRLSCAASGFTFRNYGMHWVRQAPGKGLEWVSVIWYDGSNRYYADSVKGRFTISRDTSKNTLYLQMNSLRAEDTAVYYCARDPPITGTTGGDAFDIWGQGTMVTVSS
VL: not shown
- IC50 (M), neutralization [7]: 1.11e-10 M

B9: mAb10934 (antibody, V domains shown)
VH: not shown
VL: DIQMTQSPSSLSASVGDRVTITCQASQDIWNYINWYQQKPGKAPKLLIYDASNLKTGVPSRFSGSGSGTDFTFTISSLQPEDIATYYCQQHDDLPPTFGQGTKVEIKR
- IC50 (M), neutralization [7]: 5.44e-11 M

B10: mAb10954 (antibody, V domains shown)
VH: EVQLVESGGGLVQPGGSLRLSCAASGITVSSNYMSWVRQAPGKGLEWVSLIYSGGSTYYADSVKGRFTISRDNSKNTLYLQMNSLRVEDTAVYYCARDHGMAAAGYNYWGQGTLVTVSS
VL: DIQMTQSPSSLSASVGDRVTITCQASQDINKYLNWYQQKPGKAPKLLIYDASNLETGVPSRFSGSGSGTDFTFTINSLQPEDFATYFCQQYDNLPPAFGQGTKVEIKR
- IC50 (M), neutralization [7]: 9.22e-11 M

B11: mAb10934 (antibody, V domains shown)
VH: not shown
VL: DIQMTQSPSSLSASVGDRVTITCQASQDIWNYINWYQQKPGKAPKLLIYDASNLKTGVPSRFSGSGSGTDFTFTISSLQPEDIATYYCQQHDDLPPTFGQGTKVEIKR
- IC50 [2]: 0.066 nM and 0.0597 nM
- ADCP EC50 [M], Jurkat/hCD20/SARS-CoV-2 Spike cells [1]: 2.72e-12 M
- ADCP Max (% ADCP), Jurkat/hCD20/SARS-CoV-2 Spike cells [1]: 40.1%

B12: mAb10933 (antibody, V domains shown)
VH: QVQLVESGGGLVKPGGSLRLSCAASGFTFSDYYMSWIRQAPGKGLEWVSYITYSGSTIYYADSVKGRFTISRDNAKSSLYLQMNSLRAEDTAVYYCARDRGTTMVPFDYWGQGTLVTVSS
VL: DIQMTQSPSSLSASVGDRVTITCQASQDITNYLNWYQQKPGKAPKLLIYAASNLETGVPSRFSGSGSGTDFTFTISGLQPEDIATYYCQQYDNLPLTFGGGTKVEIKR
- ADCP EC50 [M], Jurkat/hCD20/SARS-CoV-2 Spike cells [1]: 5.79e-12 M
- ADCP Max (% ADCP), Jurkat/hCD20/SARS-CoV-2 Spike cells [1]: 53.4%

B13: mAb10933 (antibody, V domains shown)
VH: QVQLVESGGGLVKPGGSLRLSCAASGFTFSDYYMSWIRQAPGKGLEWVSYITYSGSTIYYADSVKGRFTISRDNAKSSLYLQMNSLRAEDTAVYYCARDRGTTMVPFDYWGQGTLVTVSS
VL: DIQMTQSPSSLSASVGDRVTITCQASQDITNYLNWYQQKPGKAPKLLIYAASNLETGVPSRFSGSGSGTDFTFTISGLQPEDIATYYCQQYDNLPLTFGGGTKVEIKR
- IC50 (M), neutralization [7]: 4.28e-11 M

B14: mAb10984 (antibody, V domains shown)
VH: EVQLVESGGGLVQPGGSLRLSCAASGLTVNRNYMSWVRQAPGKGLEWVSLIYSGGSTYYADSVKGRFTISRDNSKNTLYLQMNSLRLEDTAVYYCARGELGIPYGMDVWGQGTTVTVSS
VL: QSVLTQPPSVSAAPGQKVTISCSGSSSNIGNNYVSWYQQLPGTAPKLLIYDNNKRPSGIPDRFSGSKSGTSATLGITGLQTGDEADYYCGTWDSSLSAGVFGGGTKLTVLG
- IC50 (M), neutralization [7]: 9.73e-11 M
